Source: publication PMC6467919, “Designed Mutations Alter the Binding Pathways of an Intrinsically Disordered Protein” (Scientific Reports, 2019)

B1: Truncated WASP GBD (residues 238-298) with the BR segment deleted (domain or fragment, human)
chain: GSIGAPSGFKHVSHVGWDPQNGFDVNNLDPDLRSLFSRAGISEAQLTDAETSKLIYDFIEDQG
notes: two extra residues (Gly-Ser) from the thrombin recognition site left at the N-terminus of GBD; also called GBDΔBR; source: E. coli Rosetta, purified (GSTrap, thrombin, 70 °C heat step, Superdex 75); not shown: GST, N-terminal, cleaved
B2: GTPase-binding domain (GBD) of the Wiskott-Aldrich Syndrome protein (WASP), wild type, residues 228-298 (domain or fragment, human)
chain: GSSGKKKISKADIGAPSGFKHVSHVGWDPQNGFDVNNLDPDLRSLFSRAGISEAQLTDAETSKLIYDFIEDQG
notes: two extra residues (Gly-Ser) from the thrombin recognition site left at the N-terminus of GBD; 15N labelled for the NMR experiment; also called GBDWT; wild-type GBD; source: E. coli Rosetta, purified (GSTrap, thrombin, 70 °C heat step, Superdex 75); not shown: GST, N-terminal, cleaved
B3: WASP GBD (residues 228-298) with the 3A mutations plus Arg273 to Glu and Gly275 to Asp (domain or fragment, human)
chain: GSSGAAAISKADIGAPSGFKHVSHVGWDPQNGFDVNNLDPDLRSLFSEADISEAQLTDAETSKLIYDFIEDQG
notes: two extra residues (Gly-Ser) from the thrombin recognition site left at the N-terminus of GBD; also called GBD_(3A/ED); source: E. coli Rosetta, purified (GSTrap, thrombin, 70 °C heat step, Superdex 75); not shown: GST, N-terminal, cleaved
B4: WASP GBD (residues 228-298) with Lys230Lys231Lys232 changed to Glu (domain or fragment, human)
chain: GSSGEEEISKADIGAPSGFKHVSHVGWDPQNGFDVNNLDPDLRSLFSRAGISEAQLTDAETSKLIYDFIEDQG
notes: two extra residues (Gly-Ser) from the thrombin recognition site left at the N-terminus of GBD; also called GBD3E; source: E. coli Rosetta, purified (GSTrap, thrombin, 70 °C heat step, Superdex 75); not shown: GST, N-terminal, cleaved
B5: WASP GBD (residues 228-298) with Lys230Lys231Lys232 substituted by Ala (domain or fragment, human)
chain: GSSGAAAISKADIGAPSGFKHVSHVGWDPQNGFDVNNLDPDLRSLFSRAGISEAQLTDAETSKLIYDFIEDQG
notes: two extra residues (Gly-Ser) from the thrombin recognition site left at the N-terminus of GBD; 15N labelled for the NMR experiment; also called GBD3A; source: E. coli Rosetta, purified (GSTrap, thrombin, 70 °C heat step, Superdex 75); not shown: GST, N-terminal, cleaved

Experiments:
Conditions in all cases: both partners purified
[1] = target: T1, Human Cdc42 (residues 1-179) with Glu31, Asn39, Glu62, Asp63, Asp65 and Gln74 all substituted by Lys (human, UniProt P60953 1-179, Glu31 substituted by Lys | Asn39 substituted by Lys | Glu62 substituted by Lys …); experiment: stopped-flow fluorescence; ka from kobs against [GBD]; 0.1 μM mantGppNHp·Cdc42 in one syringe, GBD in excess in the second; 50 mM sodium phosphate pH 7.0, 5 mM MgCl2, 1 mM TECP, 25 °C
T1 construct: four extra residues (Gly-Ser-Phe-Thr) from the expression vector left at the N-terminus of Cdc42; human Cdc42, residues 1-179, with the 6K mutations around the subsite for GBD Csub; Loaded with mantGppNHp or GppNHp; also called Cdc42_(6K); source: E. coli Rosetta, purified (HisTrap, TEV cleavage, second HisTrap, Superdex 75); not shown: His6, N-terminal, cleaved
T1 sequence (P60953 other isoform, or with tags, fused parts or gaps with the stated changes): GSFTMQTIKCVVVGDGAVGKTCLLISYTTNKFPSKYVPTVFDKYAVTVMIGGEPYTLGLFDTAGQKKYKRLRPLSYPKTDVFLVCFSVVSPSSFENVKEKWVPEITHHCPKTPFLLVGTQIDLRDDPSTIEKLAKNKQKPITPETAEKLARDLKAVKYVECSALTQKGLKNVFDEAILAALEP

[2] = target: T2, Human Cdc42 GTPase, wild type, residues 1-179 (human, UniProt P60953 1-179); experiment: as above
T2 construct: four extra residues (Gly-Ser-Phe-Thr) from the expression vector left at the N-terminus of Cdc42; human Cdc42, residues 1-179; also called Cdc42WT; wild-type Cdc42; source: E. coli Rosetta, purified (HisTrap, TEV cleavage, second HisTrap, Superdex 75); not shown: His6, N-terminal, cleaved
T2 sequence (P60953 other isoform, or with tags, fused parts or gaps): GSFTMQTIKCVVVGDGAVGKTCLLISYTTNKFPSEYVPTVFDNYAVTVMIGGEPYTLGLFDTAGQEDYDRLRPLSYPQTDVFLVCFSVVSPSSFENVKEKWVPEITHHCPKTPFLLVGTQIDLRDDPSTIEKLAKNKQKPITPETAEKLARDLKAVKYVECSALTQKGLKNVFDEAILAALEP

[3] = target: T1, Human Cdc42 (residues 1-179) with …; experiment: other fluorescence titration; Kd from the fluorescence difference before mixing and at equilibrium at seven [GBD] values on the stopped-flow instrument; 0.1 μM mantGppNHp·Cdc42; 50 mM sodium phosphate pH 7.0, 5 mM MgCl2, 1 mM TECP, 25 °C; kd deduced as the product of Kd and ka
[4] = target: T2, Human Cdc42 GTPase, wild type, residues …; experiment: as above
[5] = target: T2, Human Cdc42 GTPase, wild type, residues …; experiment: stopped-flow fluorescence; kd measured directly by displacement: 0.1 μM mantGppNHp·Cdc42 and 1 μM GBD mixed with 20 μM GppNHp·Cdc42; 50 mM sodium phosphate pH 7.0, 5 mM MgCl2, 1 mM TECP, 25 °C
[6] = target: T2, Human Cdc42 GTPase, wild type, residues …; experiment: stopped-flow fluorescence; ka from kobs against [GBD] as in buffer, with 1 M urea added
[7] = target: T1, Human Cdc42 (residues 1-179) with …; experiment: as above
[8] = target: T1, Human Cdc42 (residues 1-179) with …; experiment: stopped-flow fluorescence; ka from kobs against [GBD] as in buffer, with 2 M urea added

Row | Binder | kon [1] [M⁻¹ s⁻¹] | kon [2] [M⁻¹ s⁻¹] | fold decrease in kd relative to Cdc42WT [3] [fold] | fold increase in binding affinity relative to Cdc42WT [3] [fold] | fold increase in kd relative to GBDWT [4] [fold] | fold weakening in binding affinity relative to GBDWT [4] [fold] | fold decrease of ka at 1 M urea relative to no urea [6] [fold] | other results
1 | B1 | 4.03e+06 | 40000 | 16 | ~1500 | 10 | 1420 |  | 
2 | B2 | 2.14e+07 | 5.53e+06 |  |  |  |  | 1.6 | koff [5]: 0.696 ± 0.011 s⁻¹; Kd [4]: 114 ± 9 nM; koff [4]: 0.63 s⁻¹
3 | B3 |  |  |  |  |  |  |  | fold reduction of ka relative to GBD3A [2]: 2.5 fold; fold increase of Kd relative to GBD3A [4]: 3.7 fold
4 | B4 |  | 97000 |  |  | 7 |  |  | 
5 | B5 | 1.09e+07 | 920000 | 121 | ~1500 | 2 | 13 | 3.1 | fold higher affinity than GBDWT-Cdc42WT [3]: ~100 fold; fold decrease of ka at 1 M urea relative to no urea [7]: 3.5 fold; fold decrease of ka at 2 M urea relative to no urea [8]: 9.2 fold
